Data from patent US20160362456.
Where a chain is given by its changes, count along the chain named.

Tests used:
Test in all cases: EMSA
Conditions in all cases: derived from FIG. 2D
[1] = target: T1, XylR R121C R121C (Escherichia coli) (UniProt P0ACI3)
T1 sequence: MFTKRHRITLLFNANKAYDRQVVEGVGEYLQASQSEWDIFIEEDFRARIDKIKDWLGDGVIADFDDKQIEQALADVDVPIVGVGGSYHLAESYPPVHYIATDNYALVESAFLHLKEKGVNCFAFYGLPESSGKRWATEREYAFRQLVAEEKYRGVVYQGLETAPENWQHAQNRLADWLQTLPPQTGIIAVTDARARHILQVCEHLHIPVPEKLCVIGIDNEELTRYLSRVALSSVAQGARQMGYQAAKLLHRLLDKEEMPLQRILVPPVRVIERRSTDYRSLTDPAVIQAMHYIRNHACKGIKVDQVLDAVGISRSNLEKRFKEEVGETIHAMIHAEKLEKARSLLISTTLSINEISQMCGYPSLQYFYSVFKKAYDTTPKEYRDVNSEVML

[2] = target: T2, XylR wild-type (Escherichia coli) (UniProt P0ACI3)
T2 sequence: T1 sequence with C121R

[3] = target: T3, XylR P363S P363S (Escherichia coli) (UniProt P0ACI3)
T3 sequence: T1 sequence with C121R, P363S

XylR binding site IA
Kd [1]: 2.7 nM | Kd [2]: 38.5 nM | Kd [3]: 12.4 nM

XylR binding site IF
Kd [1]: 4 nM | Kd [2]: 19.6 nM | Kd ([3]; value as printed): 27 nM
